Source: PMC11098500 (PLOS Pathogens, 2024)

Target: SARS-CoV-2 RBD (residues 319-529), His-tagged (SARS-CoV-2 (prototypic strain), UniProt P0DTC2 319-529)
Assay: SPR
Details: both partners purified

B1: raccoon dog ACE2 ectodomain (residues 1-614), Fc-tagged (Fc fusion)
chain: QSTEDLVNTFLEKFNYEAEELSYQSSLASWNYNTNITDENLQKMNNAGAKWSAFYEEQSKLAKTYPLEEIQDSTVKRQLRALQHSGSSVLSADKNQRLNTILNSMSTIYSTGKACNPSNPQECLLLEPGLDDIMENSKDYNERLWAWEGWRSEVGKQLRPLYEEYVALKNEMARANNYEDYGDYWRGDYEEEWENGYNYSRNQLIDDVEHTFTQIMPLYQHLHAYVRTKLMDTYPSYISPTGCLPAHLLGDMWGRFWTNLYPLTVPFGQKPNIDVTNAMVNQSWDARKIFKEAEKFFVSVGLPNMTQGFWENSMLTEPSDSWKVVCHPTAWDLGRGDFRIKMCTKVTMDDFLTAHHEMGHIQYDMAYAAQPFLLRNGANEGFHEAVGEIMSLSAATPNHLKNIGLLPPSFFEDSETEINFLLKQALTIVGTLPFTYMLEKWRWMVFKGEIPKDQWMKTWWEMKRNIVGVVEPVPHDETYCDPASLFHVANDYSFIRYYTRTIYQFQFQEALCQIAKHEGPLHKCDISNSSEAGQKLLEMLKLGKSKPWTYALEIVVGAKNMDVRPLLNYFEPLFTWLKEQNRNSFVGWNTDWSPYAD
Kd: 399 nM
